The target of one series is 14-3-3β (Homo sapiens) (UniProt P31946). The conditions noted are these: cited from earlier work.
The series “mass photometry” concerns the molecule itself. Put plainly: mass photometry.

Chain of 14-3-3β (Homo sapiens) (P31946 2-246): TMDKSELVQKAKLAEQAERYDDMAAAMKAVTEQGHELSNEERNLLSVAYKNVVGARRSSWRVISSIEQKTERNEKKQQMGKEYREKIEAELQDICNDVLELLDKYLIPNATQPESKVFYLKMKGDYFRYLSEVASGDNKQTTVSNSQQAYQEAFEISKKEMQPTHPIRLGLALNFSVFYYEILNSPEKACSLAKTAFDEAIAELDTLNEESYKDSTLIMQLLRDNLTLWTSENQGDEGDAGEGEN

As to ExoS ART domain (from UniProt G3XDA1), the Kd – broadly, the free concentration of one partner at which half of the binding sites on the other are occupied at equilibrium, for simple one-to-one binding – with 14-3-3β (Homo sapiens) is 40 nM.

B1: human 14-3-3β, individually expressed, with affinity tag (natural protein)
chain: MTMDKSELVQKAKLAEQAERYDDMAAAMKAVTEQGHELSNEERNLLSVAYKNVVGARRSSWRVISSIEQKTERNEKKQQMGKEYREKIEAELQDICNDVLELLDKYLIPNATQPESKVFYLKMKGDYFRYLSEVASGDNKQTTVSNSQQAYQEAFEISKKEMQPTHPIRLGLALNFSVFYYEILNSPEKACSLAKTAFDEAIAELDTLNEESYKDSTLIMQLLRDNLTLWTSENQGDEG
notes: also called purified 14-3-3β
As to B1, the stoichiometry N (as a rule, the number of molecules, sites or subunits per partner or assembly) in the series “mass photometry” stood at 2.

B2: human 14-3-3β, un-tagged, co-expressed with the exotoxin ART domains (natural protein)
chain: MTMDKSELVQKAKLAEQAERYDDMAAAMKAVTEQGHELSNEERNLLSVAYKNVVGARRSSWRVISSIEQKTERNEKKQQMGKEYREKIEAELQDICNDVLELLDKYLIPNATQPESKVFYLKMKGDYFRYLSEVASGDNKQTTVSNSQQAYQEAFEISKKEMQPTHPIRLGLALNFSVFYYEILNSPEKACSLAKTAFDEAIAELDTLNEESYKDSTLIMQLLRDNLTLWTSENQGDEG
Turning to B2, in “mass photometry”, the “stoichiometry N” value is 2.

(Values after PMC9787417 (Pathogens, 2022).)
